Reference: US20170145086A1

Key:
[1] = molecular target: HA-GCN4 hAPRIL (amino acid residues 105-250) (human) (UniProt O75888); experiment: indirect ELISA, purified antibody, 3-parameter fit
[2] = molecular target: HA-GCN4 hAPRIL (amino acid residues 105-250) (human) (UniProt O75888); experiment: blocking ELISA; blocked: APRIL binding to TACI-Fc
[3] = molecular target: HA-GCN4 hAPRIL (amino acid residues 105-250) (human) (UniProt O75888); experiment: blocking ELISA; blocked: human APRIL binding to human BCMA-Fc
[4] = molecular target: HA-GCN4 hAPRIL (amino acid residues 105-250) (human) (UniProt O75888); experiment: blocking ELISA; blocked: human APRIL binding to human TACI-Fc
[5] = molecular target: HA-GCN4 hAPRIL (amino acid residues 105-250) (human) (UniProt O75888); experiment: blocking ELISA, 4-parameter fit; blocked: human APRIL binding to human BCMA-Fc
[6] = molecular target: HA-GCN4 hAPRIL (amino acid residues 105-250) (human) (UniProt O75888); experiment: blocking ELISA, 4-parameter fit; blocked: human APRIL binding to human TACI-Fc

HA-GCN4 hAPRIL (amino acid residues 105-250) (human), sequence (O75888 105-250): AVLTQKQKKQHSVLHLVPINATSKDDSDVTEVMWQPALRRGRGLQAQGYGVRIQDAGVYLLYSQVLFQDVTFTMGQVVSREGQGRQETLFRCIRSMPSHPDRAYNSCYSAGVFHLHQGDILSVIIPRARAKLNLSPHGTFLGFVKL

B1: 0201 (antibody, from another filing)
scFv: EVQLVQSGAEVKKPGASVKVSCKTSGYTFTDNYMHWVRQAPGQGLEWMGWISPNSSTTLYAQKFRGRVTLTRDTSVSTAYMELSGLDSDDTALYFCARGGRLAGSTVFTPAFEYWGRGTMVTVSSGGGGSGGGGSGGGGSAQAVLTQPSSVSEAPRQRVTISCSGSSSNIGNNAVKWYQQLPGKAPKLLIYYDDLLPSGVSDRFSGSKSGTSASLAISGLQSEDEADYYCAAWDDSLNGYVFGTGTKVTVLG
- EC50 [1]: 0.0104 µg/mL
- IC50 [2]: 0.204 µg/mL
- % Inhibition [3]: 99%
- % Inhibition [4]: 99%
- IC50 [5]: 3.14 nM
- IC50 [6]: 2.85 nM
